# Key:
# TBP;TFIIA = TBP;TFIIA (human;human, UniProt P20226;P52655;P52657 1-339;1-376;1-109, |); test: smFRET
# TBP = TBP (human, UniProt P20226 1-339); test: smFRET
# TBP, sequence (P20226 whole entry): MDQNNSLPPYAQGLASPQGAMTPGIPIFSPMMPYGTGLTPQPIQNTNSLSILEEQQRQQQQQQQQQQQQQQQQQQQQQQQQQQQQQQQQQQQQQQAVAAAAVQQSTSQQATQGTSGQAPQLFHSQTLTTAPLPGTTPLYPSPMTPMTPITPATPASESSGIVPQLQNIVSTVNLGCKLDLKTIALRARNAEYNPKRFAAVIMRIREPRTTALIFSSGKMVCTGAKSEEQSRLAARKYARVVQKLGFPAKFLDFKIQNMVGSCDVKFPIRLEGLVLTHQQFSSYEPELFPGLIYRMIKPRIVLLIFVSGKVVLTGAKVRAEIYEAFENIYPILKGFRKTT
# TBP;TFIIA, sequence (P20226 whole entry, chain 1 of 3): as the sequence (P20226 whole entry) above
# TBP;TFIIA, sequence (P52655 whole entry, chain 2 of 3): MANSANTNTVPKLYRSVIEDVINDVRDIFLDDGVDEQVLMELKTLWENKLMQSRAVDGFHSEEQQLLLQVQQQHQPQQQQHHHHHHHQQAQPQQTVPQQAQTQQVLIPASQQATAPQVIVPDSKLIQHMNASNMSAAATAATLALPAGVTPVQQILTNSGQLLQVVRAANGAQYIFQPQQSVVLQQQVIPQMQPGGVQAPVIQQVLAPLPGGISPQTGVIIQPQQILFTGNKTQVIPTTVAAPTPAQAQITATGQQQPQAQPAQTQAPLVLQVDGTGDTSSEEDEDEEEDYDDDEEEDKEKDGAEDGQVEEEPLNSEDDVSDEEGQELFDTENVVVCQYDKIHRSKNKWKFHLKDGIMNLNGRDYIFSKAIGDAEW
# TBP;TFIIA, sequence (P52657 whole entry, chain 3 of 3): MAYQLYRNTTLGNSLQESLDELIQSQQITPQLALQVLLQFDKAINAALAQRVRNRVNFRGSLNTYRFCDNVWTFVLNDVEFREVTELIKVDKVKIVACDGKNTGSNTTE
binder,measurement,setting,value
TATA(A3) smFRET construct (mixed) DNA 1: CAGGCTAAAAAAGGGACG DNA 2: CGTCCCTTTTTTAGCCTGCACCACCACCACCACCACCA DNA 3: TGGTGGTGGTGGTGGTGGT,binding result,TBP;TFIIA,binds
same,binding result,TBP,binds

# Source: article PMC3551999
